Reference: PMC4529816 (Molecular cancer therapeutics, 2015)

Molecular target: T1, GAL4^DBD-SIN3B (UniProt O75182 1-1162)
T1 sequence (looked up): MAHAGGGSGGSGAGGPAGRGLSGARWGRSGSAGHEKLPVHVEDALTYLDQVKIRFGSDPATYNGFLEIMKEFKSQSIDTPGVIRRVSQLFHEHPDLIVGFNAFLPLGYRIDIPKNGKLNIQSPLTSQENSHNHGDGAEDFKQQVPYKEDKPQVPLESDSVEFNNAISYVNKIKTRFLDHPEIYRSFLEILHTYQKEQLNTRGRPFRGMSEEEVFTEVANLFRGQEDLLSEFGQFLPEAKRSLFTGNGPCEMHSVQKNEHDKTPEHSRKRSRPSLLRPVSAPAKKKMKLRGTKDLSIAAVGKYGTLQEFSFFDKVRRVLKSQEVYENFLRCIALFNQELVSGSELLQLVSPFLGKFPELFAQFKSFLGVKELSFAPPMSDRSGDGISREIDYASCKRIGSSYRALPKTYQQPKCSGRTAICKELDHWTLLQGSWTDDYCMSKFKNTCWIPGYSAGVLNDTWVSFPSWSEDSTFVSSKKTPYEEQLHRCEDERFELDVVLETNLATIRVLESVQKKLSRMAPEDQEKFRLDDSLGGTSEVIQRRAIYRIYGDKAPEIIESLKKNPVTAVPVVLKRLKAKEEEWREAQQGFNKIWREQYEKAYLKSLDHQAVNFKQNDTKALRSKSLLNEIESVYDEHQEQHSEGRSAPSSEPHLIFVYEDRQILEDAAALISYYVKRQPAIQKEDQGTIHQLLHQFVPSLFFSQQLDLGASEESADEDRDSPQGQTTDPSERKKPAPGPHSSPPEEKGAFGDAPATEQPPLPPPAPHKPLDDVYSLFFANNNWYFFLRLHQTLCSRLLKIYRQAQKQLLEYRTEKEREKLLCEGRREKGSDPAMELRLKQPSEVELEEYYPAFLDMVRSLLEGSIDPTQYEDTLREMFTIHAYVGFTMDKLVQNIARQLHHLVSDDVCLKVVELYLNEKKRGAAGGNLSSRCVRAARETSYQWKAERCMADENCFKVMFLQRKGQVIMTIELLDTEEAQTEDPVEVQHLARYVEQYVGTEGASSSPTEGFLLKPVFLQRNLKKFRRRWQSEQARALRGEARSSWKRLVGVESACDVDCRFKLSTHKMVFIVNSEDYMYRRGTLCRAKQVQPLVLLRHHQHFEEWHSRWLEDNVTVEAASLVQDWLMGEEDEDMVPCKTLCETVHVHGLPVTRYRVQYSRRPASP
Experiment: two-hybrid

B1: VP16^AD-MAD (natural protein, UniProt Q05195 1-221, looked up)
chain: MAAAVRMNIQMLLEAADYLERREREAEHGYASMLPYNNKDRDALKRRNKSKKNNSSSRSTHNEMEKNRRAHLRLCLEKLKGLVPLGPESSRHTTLSLLTKAKLHIKKLEDCDRKAVHQIDQLQREQRHLKRQLEKLGIERIRMDSIGSTVSSERSDSDREEIDVDVESTDYLTGDLDWSSSSVSDSDERGSMQSLGSDEGYSSTSIKRIKLQDSHKACLGL
  fold decrease in luciferase activity against the empty vectors: 3.7 fold
